In this assay the target is ISCU(M108I) (human) (UniProt Q9H1K1). The experiment in a line: ITC.

From publication PMC5842376 come the findings set out here.

One may read the Kd as a measure of binding affinity in units of concentration. “human cysteine desulfurase complex (NIA)2, [NFS1]2:[ISD11]2:[Acp]2 (from UniProt Q9HD34 1-91; P0A6A8 1-78)” gave a Kd of 2600 nM.
